Experimental data from paper PMC10908866, “A structural and dynamic visualization of the interaction between MAP7 and microtubules” (Nature Communications, 2024).
Where no end group is shown, it is not given here.

B1: MAP7 microtubule-binding domain (MTBD), residues 59-170 (domain or fragment, human, UniProt Q14244 59-170, looked up)
chain: PVLRVDDRQRLARERREEREKQLAAREIVWLEREERARQHYEKHLEERKKRLEEQRQKEERRRAAVEEKRRQRLEEDKERHEAVVRRTMERSQKPKQKHNRWSWGGSLHGSP
notes: Uniformly [13C-15N] labelled in the NMR experiments; The deposited model PDB 8RC1 holds only a poly-alanine backbone of residues 63-151; also called MAP7 MTBD; MT-associated protein 7 MTBD; not shown: His-Tag, N-terminal, cleaved
B2: NHS-fluorescein-labelled α-tubulin C-terminal tail peptide (peptide)
peptide: SVEGEGEEEGEEY
modifications: also: NHS-fluorescein attached, position not given here
notes: C-terminal tail of HeLa S3 α-tubulin, residues Ser 439-Tyr 451; also called fluorescein labelled α-CTT; NHS-fluorescein-labelled α-CTT; source: synthetic peptide, bought: Sigma-Aldrich; labelled with NHS-fluorescein and dialysed

Experiments:
[1] = molecular target: T1, microtubules polymerised from porcine brain α/β-tubulin (porcine, UniProt P02550 1-451; P02554 1-445); assay: ITC; 150 µM MAP7 MTBD titrated in 2 µL steps to 164 µL of 15 µM Taxol-stabilized MT; 37 °C; NMR buffer (40 mM NaPi pH 6.5, 150 mM NaCl) with 1 mM β-ME and 1 mM GTP; duplicates; details: both partners purified
T1 construct: α-tubulin of porcine brain tubulin; β-tubulin of porcine brain tubulin; Polymer of α/β-tubulin heterodimers (13 or 14 protofilaments in cryo-EM); Brain tubulin is a mixture of isotypes; For ITC and NMR samples the methods say only 'lyophilized tubulin (Cytoskeleton)' without species; also called MTs; MT; source: bought: Cytoskeleton (porcine brain tubulin, Cat No. T240; lyophilized tubulin), …
T1 sequence (P02550 whole entry, chain 1 of 2): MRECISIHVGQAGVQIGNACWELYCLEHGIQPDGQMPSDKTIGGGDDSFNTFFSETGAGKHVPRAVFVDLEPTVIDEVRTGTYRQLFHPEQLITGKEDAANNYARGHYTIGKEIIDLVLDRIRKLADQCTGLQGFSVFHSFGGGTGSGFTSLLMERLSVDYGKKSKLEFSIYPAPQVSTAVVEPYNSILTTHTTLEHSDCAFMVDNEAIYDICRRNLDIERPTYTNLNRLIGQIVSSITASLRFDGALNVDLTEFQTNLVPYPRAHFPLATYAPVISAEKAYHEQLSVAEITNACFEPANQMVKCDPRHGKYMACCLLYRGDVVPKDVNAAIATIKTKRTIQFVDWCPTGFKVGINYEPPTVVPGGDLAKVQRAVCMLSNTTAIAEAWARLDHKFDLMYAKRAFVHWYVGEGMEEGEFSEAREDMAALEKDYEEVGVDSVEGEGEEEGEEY
T1 sequence (P02554 whole entry, chain 2 of 2): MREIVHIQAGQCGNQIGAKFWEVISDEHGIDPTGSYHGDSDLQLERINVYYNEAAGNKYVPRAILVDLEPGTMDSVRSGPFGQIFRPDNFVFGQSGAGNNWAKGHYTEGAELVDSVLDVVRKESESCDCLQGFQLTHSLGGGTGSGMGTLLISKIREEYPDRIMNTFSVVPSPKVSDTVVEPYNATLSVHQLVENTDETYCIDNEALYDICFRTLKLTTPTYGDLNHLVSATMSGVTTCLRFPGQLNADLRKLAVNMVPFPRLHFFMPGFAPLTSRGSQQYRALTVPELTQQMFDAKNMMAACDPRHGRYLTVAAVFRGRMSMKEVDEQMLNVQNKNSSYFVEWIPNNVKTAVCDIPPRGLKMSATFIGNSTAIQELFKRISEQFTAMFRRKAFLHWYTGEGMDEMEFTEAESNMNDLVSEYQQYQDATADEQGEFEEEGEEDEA

[2] = molecular target: B1; assay: fluorescence polarisation; fluorescence anisotropy; 1 µM NHS-fluorescein-labelled α-CTT, MAP7 MTBD 200 to 0 µM, 384-well plate; 40 mM NaPi pH 6.5, 150 mM NaCl, 1 mM DTT; fit with DynaFit; details: both partners purified

| Kd [1] [µM] | stoichiometry N [1] | Kd [2] [µM] | Binder |
| --- | --- | --- | --- |
| 0.94 | 0.51 ± 0.09 | – | B1 |
| – | – | 91.3 | B2 |
